Assays:
[1] = system: monoclonal antibody MV-001; assay: In vitro inhibition assay (ELISA), MV-001 binding to original epitope; set-up: species or system C57/Bl6 mice; conditions: OD at 10 μg peptide compared to original peptide
Protocol: 2. In vitro inhibition assay (ELISA)
Different amounts of peptides (concentrations ranging from 10 μg to 0.08 μg; serial dilutions), derived from Phage Display were incubated with the monoclonal antibody that was used for the screening procedure. Peptides diminishing subsequent binding of the antibody to the original epitope coated on ELISA plates were considered as inhibiting in this assay.

[2] = system: monoclonal antibody MV-001; assay: In vitro binding assay (ELISA), parental antibody MV-001; set-up: species or system C57/Bl6 mice; conditions: peptide-BSA on ELISA plate; OD halfmax, dilution factor 1:X of parental AB MV-001
Protocol: 1. In vitro binding assay (ELISA)
Peptides derived from Phage Display as well as variants thereof were coupled to BSA and bound to ELISA plates (1 μM; as indicated in the respective figures) and subsequently incubated with the monoclonal antibody that was used for the screening procedure to analyse binding capacity of identified peptides.

[3] = target: monoclonal antibody MV-001; assay: inhibition ELISA; competitor: coated original epitope p4371; conditions: for Inhibition Capacity: scale: code
[4] = target: monoclonal antibody MV-001; assay: ELISA, peptide-BSA coated, MV-001; conditions: for Binding Capacity: scale: code

Row | Inhibition Capacity (code (weaker than original epitope)) [3] | Binding Capacity [4] | Molecule | Inhibition Capacity [1] | further results
1 |  |  | CHEFRH [p4802] | 2 (strong inhibition (as original epitope; OD of 10 μg peptide below 2 times of original peptide)) | Binding Capacity [2]: 3 (strong binding :>20000)
2 |  |  | QFKHDLC [p4391] | 1 (Weaker than original epitope (OD of 10 μg peptide below 3 times of original peptide)) | 
3 |  |  | EELRHSVC [p4746] | 1 (Weaker than original epitope (OD of 10 μg peptide below 3 times of original peptide)) | Binding Capacity [2]: 3 (strong binding :>20000)
4 |  |  | SHFRHGC [p4389] | 1 (Weaker than original epitope (OD of 10 μg peptide below 3 times of original peptide)) | 
5 |  |  | TPFRHTC [p4384] | 1 (Weaker than original epitope (OD of 10 μg peptide below 3 times of original peptide)) | 
6 |  |  | TSFRHGC [p4382] | 1 (Weaker than original epitope (OD of 10 μg peptide below 3 times of original peptide)) | 
7 |  |  | CSEFKH [p4800] | 2 (strong inhibition (as original epitope; OD of 10 μg peptide below 2 times of original peptide)) | Binding Capacity [2]: 3 (strong binding :>20000)
8 |  |  | QDFRHYC [p4380] | 1 (Weaker than original epitope (OD of 10 μg peptide below 3 times of original peptide)) | 
9 |  |  | DGLLFKHC [p4741] | 1 (Weaker than original epitope (OD of 10 μg peptide below 3 times of original peptide)) | Binding Capacity [2]: 3 (strong binding :>20000)
10 |  |  | EEFKYSC [p4393] | 1 (Weaker than original epitope (OD of 10 μg peptide below 3 times of original peptide)) | 
11 |  |  | LPFRHGC [p4388] | 1 (Weaker than original epitope (OD of 10 μg peptide below 3 times of original peptide)) | 
12 |  |  | SAFRHHC [p4387] | 1 (Weaker than original epitope (OD of 10 μg peptide below 3 times of original peptide)) | 
13 | 1 |  | NWFPHPC [p4392] |  | Binding Capacity (code (weak binding, OD halfmax 1:<4000)) [4]: 1
14 |  | 3 | CSEFKH [p4800] |  | Inhibition Capacity [3]: 2
15 | 1 | 3 | DGLLFKHC [p4741] |  | 
16 | 1 | 3 | QSEFKHWC [p4738] |  | 
17 | 1 | 3 | EELRHSVC [p4746] |  | 
18 |  | 3 | TEFRHKAC [p4753] |  | Inhibition Capacity [3]: 2
19 | 1 | 3 | DEHPFRHC [p4730] |  | 
20 | 1 | 2 | EEFKYSC [p4393] |  | 
21 | 1 | 3 | SPNQFRHC [p4707] |  | 
22 | 1 | 3 | THTDFRHC [p4725] |  | 
23 | 1 | 3 | SEFKHC [p4801] |  | 
24 | 1 | 3 | ADHDFRHC [p4740] |  | 
25 |  | 3 | TLHEFRHC [p4715] |  | Inhibition Capacity [3]: 2
